Experimental data: patent US20130064817A1
Residue numbers refer to the chain shown, from its start. In names and notes the source's numbering stands.

B1: humanized 20D7 antibody with hu20D7-a heavy chain variable domain (antibody, part only; not given: unnamed light chain, V domains shown, part only)
VH: QVQLVQSGAEVKKPGASVKVSCKASGYTFTNYAMNWVRQAPGQGLEWMGWINTYTGEPTYNEKFKGRVTMTTDTSTSTAYMELRSLRSDDTAVYYCARGGGYDEDYFDYWGQGTLVTVSS
B2: humanized 20D7 antibody with hu20D7-b heavy chain variable domain (T72L) (antibody, part only; not given: unnamed light chain, V domains shown, part only)
VH: B1 VH with N61S, E62D, K63D, T72L
B3: humanized 20D7 antibody with hu20D7-c heavy chain variable domain (T72L, M70F) (antibody, part only; not given: unnamed light chain, V domains shown, part only)
VH: B1 VH with N61S, E62D, K63D, M70F, T72L

Target: human IL-23R (human) (UniProt Q5VWK5)
Experiment: BIAcore, antibody immobilized on CM5 chip

human IL-23R (human), sequence (Q5VWK5 24-353 L310P limits assumed): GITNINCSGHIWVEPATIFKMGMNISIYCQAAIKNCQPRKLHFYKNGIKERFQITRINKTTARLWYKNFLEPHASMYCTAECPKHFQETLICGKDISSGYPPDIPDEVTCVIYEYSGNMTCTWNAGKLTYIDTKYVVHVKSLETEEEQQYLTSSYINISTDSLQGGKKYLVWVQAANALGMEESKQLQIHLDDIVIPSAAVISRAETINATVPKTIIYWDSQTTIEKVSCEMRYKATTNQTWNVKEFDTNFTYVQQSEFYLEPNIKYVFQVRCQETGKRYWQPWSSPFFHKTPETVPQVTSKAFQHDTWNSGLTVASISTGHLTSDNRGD

Binder | Kd [pM] | fold reduction of binding affinity against mouse 20D7 [fold] | fold improvement of binding affinity against the simple humanization (hu20D7-a) [fold]
B1 | 4300 | 50 | 
B2 | 360 |  | 
B3 | 230 |  | 20
